According to patent US20170258835A1:
Values belong to the binder of their own block, whether it stands above or below them.

Biological target: PD1-Z CLEAR
Assay: flow cytometry, T cells 18 h after co-electroporation of PD1-Z RNA and bi-specific antibody RNA, stained with anti-mouse IgG Fab PE and anti-PD1 APC; same quadrant in the controls: EP16 PD1-Z alone 2.42, EP20 No RNA 0.086

Chain of PD1-Z CLEAR (chain, as listed by the source limits assumed): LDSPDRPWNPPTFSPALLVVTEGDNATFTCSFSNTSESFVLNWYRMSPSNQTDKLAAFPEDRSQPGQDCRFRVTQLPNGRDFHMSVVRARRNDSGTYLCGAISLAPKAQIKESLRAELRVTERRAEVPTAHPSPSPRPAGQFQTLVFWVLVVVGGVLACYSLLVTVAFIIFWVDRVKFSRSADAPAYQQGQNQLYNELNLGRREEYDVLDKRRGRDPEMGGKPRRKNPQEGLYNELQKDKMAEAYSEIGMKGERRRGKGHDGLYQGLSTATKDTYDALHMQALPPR

- percent of cells PD1+ mIgG Fab+ (upper right quadrant): 57.1
B1: 4A11-4D5-4 (bispecific antibody, part only; not given: anti-ErbB2 scFv 4D5-4 and linker, not shown: another chain or arm of the molecule; small tags and cut ends)
scFv: DIQMTQSPSSLSASVGDRVSITCRASQGISSWLAWYQQKPEKAPKSLIYAASNLRSGVPSRFSGSGSGTDFTLTISSLQPEDFATYYCQQYYSYPRTFGQGTKVEIKGGGGSGGGGSGGGGSQLQLQESGPGLVKPSETLSLTCTVSGGSLSRSSFFWGWIRQPPGKGLEWIGSIYYSGSTYYNPSLKSRVTISVDTSKNQFSLKLSSVTAADTAVYYCVRDYDILTGDEDYWGQGTLVTVSS

- percent of cells PD1+ mIgG Fab+ (upper right quadrant): 35.6
B2: 4A11-4D5-3 (bispecific antibody, part only; not given: anti-ErbB2 scFv 4D5-3 and linker, not shown: another chain or arm of the molecule; small tags and cut ends)
scFv: B1 scFv
